This note sets out measurements from PMC11603127 (Computational and Structural Biotechnology Journal, 2024).

Numbering of substitutions follows the chain as printed.

In assay [1] the target is T1, Recombinant NAA10^F128L (human, UniProt P41227 1-235, F128L, labeled with Monolith NT Protein Labeling Kit RED).
T1 sequence: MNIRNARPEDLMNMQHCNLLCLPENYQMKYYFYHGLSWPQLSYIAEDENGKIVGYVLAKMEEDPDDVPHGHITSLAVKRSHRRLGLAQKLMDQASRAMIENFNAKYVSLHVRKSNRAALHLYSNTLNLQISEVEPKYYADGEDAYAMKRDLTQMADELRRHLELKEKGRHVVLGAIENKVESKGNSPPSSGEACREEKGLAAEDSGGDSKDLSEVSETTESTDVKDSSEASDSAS
Put plainly: MST.

For assay [2], the target named is T2, Recombinant NAA10 (wild type) (human, UniProt P41227 1-235, labeled with Monolith NT Protein Labeling Kit RED).
T2 sequence: T1 sequence with L128F
The experiment in a line: MST.

B1: EEEI24 oligopeptide (peptide)
peptide: EEEIAALRWGRPVGRRRRPVRVYP
As to B1, the binding result in assay [1] and in assay [2] was “binds” each time.
